Data reported in publication PMC8597827, “The effect of S427F mutation on RXRα activity depends on its dimeric partner†”.

Molecular target: RXRα WT (human, UniProt P19793 1-462)
Assay: EMSA; no ligand; two shifts; competed by 5x and 25x unlabeled DR1; 10 mM Tris HCl pH 8.0, 150 mM KCl, 0.5 mM EDTA, 0.1% Triton X-100, 12.5% glycerol, 0.2 mM DTT, 1 ug poly(dI-dC), 100 pmol probe in 20 uL; 10 min RT then 5 min 37 C; 5% PAGE in 0.5x TBE at 4 C
Conditions: protein: recombinant; chain copies: 2; blunt

Sequence of RXRα WT (P19793 whole entry): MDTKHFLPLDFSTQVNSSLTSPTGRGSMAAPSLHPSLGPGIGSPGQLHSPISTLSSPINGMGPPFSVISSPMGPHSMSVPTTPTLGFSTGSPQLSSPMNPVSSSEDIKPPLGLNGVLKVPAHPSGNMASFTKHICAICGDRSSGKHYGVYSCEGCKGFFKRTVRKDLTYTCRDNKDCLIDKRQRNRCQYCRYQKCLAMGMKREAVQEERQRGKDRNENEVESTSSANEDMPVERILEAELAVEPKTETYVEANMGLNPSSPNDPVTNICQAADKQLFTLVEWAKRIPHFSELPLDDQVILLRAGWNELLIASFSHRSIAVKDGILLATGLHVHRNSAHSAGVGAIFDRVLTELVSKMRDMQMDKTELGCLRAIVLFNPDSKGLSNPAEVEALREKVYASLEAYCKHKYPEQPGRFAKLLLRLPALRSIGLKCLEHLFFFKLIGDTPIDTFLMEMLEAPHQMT

B1: DR1 (dsDNA)
DNA 1: TCGAGGGTAGGGGTCAGAGGTCACTCGTCGA
DNA 2: TCGACGAGTGACCTCTGACCCCTACCCTCGA
**Q.** Does B1 bind?
**A.** Result: binds
